# Source: patent US20140219913A1 (AbbVie / Abbott, published 2014)
# T1: Recombinant human B7-1/CD80 Fc chimera (Cat. 140-B1-100, R&D Systems) (human, UniProt P33681 35-242)
# T1 construct: extracellular domain; also called B7-1 antigen; Fc part of the bought chimera not given; not described
# T1 sequence (looked up): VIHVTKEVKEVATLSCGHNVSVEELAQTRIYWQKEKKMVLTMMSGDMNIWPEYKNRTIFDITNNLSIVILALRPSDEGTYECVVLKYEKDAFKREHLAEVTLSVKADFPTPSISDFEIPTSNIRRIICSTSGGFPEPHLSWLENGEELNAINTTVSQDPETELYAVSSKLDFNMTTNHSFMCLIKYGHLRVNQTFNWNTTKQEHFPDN
# T2: Recombinant human B7-2/CD86 Fc chimera (Cat. 141-B2-100, R&D Systems) (human, UniProt P42081 26-245)
# T2 construct: Fc part of the bought chimera not given; not described
# T2 sequence (looked up): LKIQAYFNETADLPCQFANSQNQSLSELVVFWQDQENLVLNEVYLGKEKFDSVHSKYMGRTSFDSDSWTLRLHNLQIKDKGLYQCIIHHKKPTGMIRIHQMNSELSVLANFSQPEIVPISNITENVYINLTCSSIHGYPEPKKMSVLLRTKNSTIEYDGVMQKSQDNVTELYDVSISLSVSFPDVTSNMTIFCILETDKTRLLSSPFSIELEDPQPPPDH
# How the values were obtained:
# [1] = target: T1, Recombinant human B7-1/CD80 Fc chimera …; experiment: direct bind ELISA, coated recombinant human B7-1/CD80 Fc chimera
# Method: Enzyme Linked Immunosorbent Assays (ELISA) to screen for antibodies that bind a desired target antigen were performed as follows. High bind ELISA plates (Corning Costar #3369, Acton, Mass.) were coated with 100 μL/well of 10 μg/ml of desired target antigen (R&D Systems, Minneapolis, Minn.) or desired target antigen extra-cellular domain/FC fusion protein (R&D Systems, Minneapolis, Minn.) or monoclonal mouse anti-polyHistidine antibody (R&D Systems #MAB050, Minneapolis, Minn.) in phosphate buffered saline (10×PBS, Abbott Bioresearch Center, Media Prep#MPS-073, Worcester, Mass.) overnight at 4° C. Plates were washed four times with PBS containing 0.02% Tween 20. Plates were blocked by the addition of 300 μL/well blocking solution (non-fat dry milk powder, various retail suppliers, diluted to 2% in PBS) for ½ hour at room temperature. Plates were washed four times after blocking with PBS containing 0.02% Tween 20.
# One hundred microliters of 10 ng/mL goat anti-human IgG-FC specific HRP conjugated antibody (Southern Biotech #2040-05, Birmingham, Ala.) was added to each well of the desired target antigen plate or anti-polyHistidine antibody/Histidine tagged desired target antigen plate. Alternatively, one hundred microliters of 10 ng/mL goat anti-human IgG-kappa light chain specific HRP conjugated antibody (Southern Biotech #2060-05 Birmingham, Ala.) was added to each well of the desired target antigen/FC fusion plate and incubated for 1 hour at room temperature. Plates were washed 4 times with PBS containing 0.02% Tween 20.
# One hundred microliters of enhanced TMB solution (Neogen Corp. #308177, K Blue, Lexington, Ky.) was added to each well and incubated for 10 minutes at room temperature. The reaction was stopped by the addition of 50 μL 1N sulphuric acid. Plates were read spectrophotometrically at a wavelength of 450 nm
# [2] = target: T2, Recombinant human B7-2/CD86 Fc chimera …; experiment: competitive ELISA; coated CD28 Fc, biotinylated B7-2/CD86 Fc, construct titrated
# Method: (§1) ELISA plates (Nunc, MaxiSorp, Rochester, N.Y.) were incubated overnight at 4° C. with Recombinant Human CD28 Fc Chimera (Cat. #342-CD-200). Plates were washed three times in washing buffer (PBS containing 0.05% Tween 20), and blocked for 1 hour at 25° C. in blocking buffer (PBS containing 1% BSA). Wells were washed three times, and serial dilutions of each antibody or DVD-Ig in PBS containing 0.1% BSA were added to the wells and incubated at 25° C. for 1 hour. The wells were washed three times, and biotinylated antigen (2 nM) was added to the plates and incubated for 1 hour at 25° C. The wells were washed three times and incubated for 1 hour at 25° C. with streptavidin-HRP (KPL #474-3000, Gaithersburg, Md.). The wells were washed three times, and 100 μl of ULTRA-TMB ELISA (Pierce, Rockford, Ill.) was added per well. Following color development the reaction was stopped with 1N HCL and absorbance at 450 nm was measured. Recombinant human B7-1/CD80 Fc chimera (Cat. 140-B1-100, R&D Systems, Minneapolis, Minn.) was used.
# Recombinant human B7-2/CD86 Fc chimera (Cat. 141-B2-100, R&D Systems, Minneapolis, Minn.) was used.
# [3] = target: T1, Recombinant human B7-1/CD80 Fc chimera …; experiment: competitive ELISA; coated CD28 Fc, biotinylated B7-1/CD80 Fc (2 nM), construct titrated
# Method: as §1
# [4] = target: NGF; experiment: cell-based or functional assay
Binder,EC50 [2] [nM],EC50 [3] [nM],other results
"RAB021 (other, rDVD-Ig with LEA29Y on the light chain only and a QH linker; also called RAB021H; RAB021L) VH: EVQLVQSGAEVKKPGASVKVSCKASGYTFTKYWLGWVRQAPGQGLEWMGDIYPGYDYTHYNEKFKDRVTLTTDTSTSTAYMELRSLRSDDTAVYYCARSDGSSTYWGQGTLVTVSS VL: AMHVAQPAVVLASSRGIASFVCEYASPGKYTEVRVTVLRQADSQVTEVCAATYMMGNELTFLDDSICTGTSSGNQVNLTIQGLRAMDTGLYICKVELMYPPPYYEGIGNGTQIYVIDPEPCPDSDQEPKSSDKTHTSPDVLMTQTPLSLPVTPGEPASISCTSSQNIVHSNGNTYLEWYLQKPGQSPQLLIYKVSNRFSGVPDRFSGSGSGTDFTLKISRVEAEDVGVYYCFQVSHVPYTFGGGTKVEIKR",0.8,2.4,EC50 [1]: 2.5 nM
"RAB015 (other, rDVD-Ig with LEA29Y on the light chain only and a long linker; also called RAB015H; RAB015L) VH: EVQLVQSGAEVKKPGASVKVSCKASGYTFTKYWLGWVRQAPGQGLEWMGDIYPGYDYTHYNEKFKDRVTLTTDTSTSTAYMELRSLRSDDTAVYYCARSDGSSTYWGQGTLVTVSS VL: AMHVAQPAVVLASSRGIASFVCEYASPGKYTEVRVTVLRQADSQVTEVCAATYMMGNELTFLDDSICTGTSSGNQVNLTIQGLRAMDTGLYICKVELMYPPPYYEGIGNGTQIYVIDPEPCPDSDTVAAPSVFIFPPDVLMTQTPLSLPVTPGEPASISCTSSQNIVHSNGNTYLEWYLQKPGQSPQLLIYKVSNRFSGVPDRFSGSGSGTDFTLKISRVEAEDVGVYYCFQVSHVPYTFGGGTKVEIKR",,78.9,EC50 [1]: 34.9 nM
"RAB019 (other, rDVD-Ig with LEA29Y on both chains and QH linkers; also called RAB019H; RAB019L) VH: AMHVAQPAVVLASSRGIASFVCEYASPGKYTEVRVTVLRQADSQVTEVCAATYMMGNELTFLDDSICTGTSSGNQVNLTIQGLRAMDTGLYICKVELMYPPPYYEGIGNGTQIYVIDPEPCPDSDQEPKSSDKTHTSPEVQLVQSGAEVKKPGASVKVSCKASGYTFTKYWLGWVRQAPGQGLEWMGDIYPGYDYTHYNEKFKDRVTLTTDTSTSTAYMELRSLRSDDTAVYYCARSDGSSTYWGQGTLVTVSS VL: AMHVAQPAVVLASSRGIASFVCEYASPGKYTEVRVTVLRQADSQVTEVCAATYMMGNELTFLDDSICTGTSSGNQVNLTIQGLRAMDTGLYICKVELMYPPPYYEGIGNGTQIYVIDPEPCPDSDQEPKSSDKTHTSPDVLMTQTPLSLPVTPGEPASISCTSSQNIVHSNGNTYLEWYLQKPGQSPQLLIYKVSNRFSGVPDRFSGSGSGTDFTLKISRVEAEDVGVYYCFQVSHVPYTFGGGTKVEIKR",,,binding result [1]: no binding
"RAB009 (other, rDVD-Ig with LEA29Y on the light chain only; also called RAB009H; RAB009L) VH: EVQLVQSGAEVKKPGASVKVSCKASGYTFTKYWLGWVRQAPGQGLEWMGDIYPGYDYTHYNEKFKDRVTLTTDTSTSTAYMELRSLRSDDTAVYYCARSDGSSTYWGQGTLVTVSS VL: AMHVAQPAVVLASSRGIASFVCEYASPGKYTEVRVTVLRQADSQVTEVCAATYMMGNELTFLDDSICTGTSSGNQVNLTIQGLRAMDTGLYICKVELMYPPPYYEGIGNGTQIYVIDPEPCPDSDTVAAPDVLMTQTPLSLPVTPGEPASISCTSSQNIVHSNGNTYLEWYLQKPGQSPQLLIYKVSNRFSGVPDRFSGSGSGTDFTLKISRVEAEDVGVYYCFQVSHVPYTFGGGTKVEIKR",0.3,2.7,
"Anti-NGF (antibody, V domains shown) VH: QVQLQESGPGLVKPSETLSLTCTVSGFSLIGYDLNWIRQPPGKGLEWIGIIWGDGTTDYNSAVKSRVTISKDTSKNQFSLKLSSVTAADTAVYYCARGGYWYATSYYFDYWGQGTLVTVSS VL: DIQMTQSPSSLSASVGDRVTITCRASQSISNNLNWYQQKPGKAPKLLIYYTSRFHSGVPSRFSGSGSGTDFTFTISSLQPEDIATYYCQQEHTLPYTFGQGTKLEIKR",,,"C-terminal Bioassay Mean (IC50, nM): Cell Impedance assay [4]: 7.8 nM; C-terminal Bioassay Mean (IC50, nM): pERK assay [4]: 0.6 nM"
"RAB011 (other, rDVD-Ig with LEA29Y on the heavy chain only and anti-NGF variable domains; also called RAB011H; RAB011L) VH: AMHVAQPAVVLASSRGIASFVCEYASPGKYTEVRVTVLRQADSQVTEVCAATYMMGNELTFLDDSICTGTSSGNQVNLTIQGLRAMDTGLYICKVELMYPPPYYEGIGNGTQIYVIDPEPCPDSDASTKGPQVQLQESGPGLVKPSETLSLTCTVSGFSLIGYDLNWIRQPPGKGLEWIGIIWGDGTTDYNSAVKSRVTISKDTSKNQFSLKLSSVTAADTAVYYCARGGYWYATSYYFDYWGQGTLVTVSS VL: DIQMTQSPSSLSASVGDRVTITCRASQSISNNLNWYQQKPGKAPKLLIYYTSRFHSGVPSRFSGSGSGTDFTFTISSLQPEDIATYYCQQEHTLPYTFGQGTKLEIKR",1.3,1.6,
"RAB012 (other, rDVD-Ig with LEA29Y on the light chain only and anti-NGF variable domains; also called RAB012H; RAB012L) VH: QVQLQESGPGLVKPSETLSLTCTVSGFSLIGYDLNWIRQPPGKGLEWIGIIWGDGTTDYNSAVKSRVTISKDTSKNQFSLKLSSVTAADTAVYYCARGGYWYATSYYFDYWGQGTLVTVSS VL: AMHVAQPAVVLASSRGIASFVCEYASPGKYTEVRVTVLRQADSQVTEVCAATYMMGNELTFLDDSICTGTSSGNQVNLTIQGLRAMDTGLYICKVELMYPPPYYEGIGNGTQIYVIDPEPCPDSDTVAAPDIQMTQSPSSLSASVGDRVTITCRASQSISNNLNWYQQKPGKAPKLLIYYTSRFHSGVPSRFSGSGSGTDFTFTISSLQPEDIATYYCQQEHTLPYTFGQGTKLEIKR",4.2,2.5,
"RAB007 (other, rDVD-Ig with LEA29Y on both chains; also called RAB007H; RAB007L) VH: AMHVAQPAVVLASSRGIASFVCEYASPGKYTEVRVTVLRQADSQVTEVCAATYMMGNELTFLDDSICTGTSSGNQVNLTIQGLRAMDTGLYICKVELMYPPPYYEGIGNGTQIYVIDPEPCPDSDASTKGPEVQLVQSGAEVKKPGASVKVSCKASGYTFTKYWLGWVRQAPGQGLEWMGDIYPGYDYTHYNEKFKDRVTLTTDTSTSTAYMELRSLRSDDTAVYYCARSDGSSTYWGQGTLVTVSS VL: AMHVAQPAVVLASSRGIASFVCEYASPGKYTEVRVTVLRQADSQVTEVCAATYMMGNELTFLDDSICTGTSSGNQVNLTIQGLRAMDTGLYICKVELMYPPPYYEGIGNGTQIYVIDPEPCPDSDTVAAPDVLMTQTPLSLPVTPGEPASISCTSSQNIVHSNGNTYLEWYLQKPGQSPQLLIYKVSNRFSGVPDRFSGSGSGTDFTLKISRVEAEDVGVYYCFQVSHVPYTFGGGTKVEIKR",2.1,6.6,
"RAB008 (other, rDVD-Ig with LEA29Y on the heavy chain only; also called RAB008H; RAB008L) VH: AMHVAQPAVVLASSRGIASFVCEYASPGKYTEVRVTVLRQADSQVTEVCAATYMMGNELTFLDDSICTGTSSGNQVNLTIQGLRAMDTGLYICKVELMYPPPYYEGIGNGTQIYVIDPEPCPDSDASTKGPEVQLVQSGAEVKKPGASVKVSCKASGYTFTKYWLGWVRQAPGQGLEWMGDIYPGYDYTHYNEKFKDRVTLTTDTSTSTAYMELRSLRSDDTAVYYCARSDGSSTYWGQGTLVTVSS VL: DVLMTQTPLSLPVTPGEPASISCTSSQNIVHSNGNTYLEWYLQKPGQSPQLLIYKVSNRFSGVPDRFSGSGSGTDFTLKISRVEAEDVGVYYCFQVSHVPYTFGGGTKVEIKR",1,1.5,
